For this experiment, the target named is BrxU, untagged (GmrSD-family Type IV restriction enzyme from Escherichia fergusonii) (Escherichia fergusonii).

This note sets out measurements from article PMC12409352.

For the substance “IPI* (mature, active form of phage T4 internal protein I, product of ip1) (natural protein)”, the in vitro digestion of glc-5mdC pUC19 DNA by untagged BrxU (1 mM ATP) after incubation with a titration of IPI*; excess of IPI* sufficient for robust inhibition was found to be 30 fold excess.
